T1: human Nectin-4 extracellular antigen (Nectin-4-His) (Homo sapiens, UniProt Q96NY8)
T1 construct: albumin signal peptide (replaces the native Nectin-4 signal peptide) (N); made in house
T1 sequence (Q96NY8 with tags, fused parts or gaps): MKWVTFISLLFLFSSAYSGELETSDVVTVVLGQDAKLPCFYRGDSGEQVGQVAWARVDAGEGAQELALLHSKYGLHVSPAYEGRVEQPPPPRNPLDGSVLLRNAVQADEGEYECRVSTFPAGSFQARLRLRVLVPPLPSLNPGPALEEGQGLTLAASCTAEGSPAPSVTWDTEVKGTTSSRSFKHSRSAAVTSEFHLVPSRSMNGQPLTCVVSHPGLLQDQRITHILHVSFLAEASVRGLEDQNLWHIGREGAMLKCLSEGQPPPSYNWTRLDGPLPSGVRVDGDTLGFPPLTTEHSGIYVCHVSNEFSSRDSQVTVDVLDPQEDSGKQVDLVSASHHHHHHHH

T2: human Nectin-4 extracellular antigen Nectin-4-His (human, UniProt Q96NY8 32-349)
T2 construct: the secreted protein in the assay lacks the signal peptide
T2 sequence: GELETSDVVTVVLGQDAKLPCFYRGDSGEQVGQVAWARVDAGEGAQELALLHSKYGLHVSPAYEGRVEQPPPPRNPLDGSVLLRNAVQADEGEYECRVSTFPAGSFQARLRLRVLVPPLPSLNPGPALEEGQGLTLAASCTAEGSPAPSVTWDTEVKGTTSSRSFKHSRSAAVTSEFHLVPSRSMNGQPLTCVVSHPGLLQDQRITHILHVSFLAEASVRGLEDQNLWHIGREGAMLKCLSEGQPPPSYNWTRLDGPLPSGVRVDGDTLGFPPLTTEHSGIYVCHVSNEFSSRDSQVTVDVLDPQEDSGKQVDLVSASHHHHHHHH

T3: Nectin-4 on T-47D cells (human ductal breast carcinoma cells) (human, UniProt Q96NY8 32-510)
T3 construct: whole, on cells; that is inferred from the antibodies' specificity
T3 sequence (looked up): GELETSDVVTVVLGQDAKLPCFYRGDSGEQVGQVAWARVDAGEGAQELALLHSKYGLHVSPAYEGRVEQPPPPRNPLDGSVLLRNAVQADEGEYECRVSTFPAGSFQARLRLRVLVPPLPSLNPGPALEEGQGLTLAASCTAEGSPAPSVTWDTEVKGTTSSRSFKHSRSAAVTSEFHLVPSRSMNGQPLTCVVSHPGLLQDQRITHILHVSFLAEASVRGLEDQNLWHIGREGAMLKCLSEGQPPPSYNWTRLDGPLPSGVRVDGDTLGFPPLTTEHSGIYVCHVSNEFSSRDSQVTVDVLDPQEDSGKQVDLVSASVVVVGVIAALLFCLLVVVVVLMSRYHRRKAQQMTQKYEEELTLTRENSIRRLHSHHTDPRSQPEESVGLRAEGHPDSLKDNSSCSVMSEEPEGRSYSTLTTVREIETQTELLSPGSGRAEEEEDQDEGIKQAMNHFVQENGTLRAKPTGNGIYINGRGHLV

B1: reference antibody ASG-22 (antibody, human IgG1, kappa, V domains shown)
VH: EVQLVESGGGLVQPGGSLRLSCAASGFTFSSYNMNWVRQAPGKGLEWVSYISSSSSTIYYADSVKGRFTISRDNAKNSLSLQMNSLRDEDTAVYYCARAYYYGMDVWGQGTLVTVSS
VL: DIQMTQSPSSVSASVGDRVTITCRASQGISGWLAWYQQKPGKAPKFLIYAASTLQSGVPSRFSGSGSGTDFTLTISSLQPEDFATYYCQQANSFPPTFGGGTKVEIKR
notes: Expressed in HEK293F cells
B2: anti-Nectin-4 antibody ASG-AM (antibody, human IgG1, kappa, V domains shown)
VH: B1 VH
VL: DIQMTQSPSSVSASVGDRVTITCRASQGISGWLAWYQQKPGKAPKFLIYAASTLQSGVPSRFSGSGSGTDFTLTISSLQPEDFATYYCQQAGPGWVFGQGTKVEIKR
notes: Expressed in HEK293F cells

Tests used:
[1] = molecular target: T1, human Nectin-4 extracellular antigen (Nectin-4-His); assay: Affinity measurement by SPR (BIAcore T200, Protein A chip capture); format: binding; conditions: 1:1 model fit
Protocol: (§1) The candidate antibodies (ASG-22 and ASG-AM) were analyzed for their affinity for the human Nectin-4 extracellular antigen using surface plasmon resonance (SPR) technology (BIAcore: GE Healthcare, T200).
(§2) The capture was conducted on a Protein A chip (Cat #29127556, GE Healthcare): Antibody dilutions ([…]) were directed through the experimental flow channels (Fc2 and Fc4) at a flow rate of 10 μL/min for 10 s. Then antigen Nectin-4-His (prepared from Example 1) dilutions at different concentrations (0 nM, 1.23 nM, 3.7 nM, 11.1 nM, 33.3 nM, and 100 nM) were sequentially introduced with the flow rate adjusted to 30 μL/min through the surfaces of the experimental flow channels (Fc2 and Fc4) and reference flow channels (Fc1 and Fc3) with 120 s of association and 180 s of dissociation. Finally, the chip regenerated in Glycine 1.5. Fitting and analysis were performed using BiaEvaluation 3.2, with a 1:1 model for the fitting.

[2] = molecular target: T1, human Nectin-4 extracellular antigen (Nectin-4-His); assay: Affinity measurement by BLI (Octet QKe, Protein A biosensor); format: binding
Protocol: (§3) The affinity of candidate antibodies (ASG-22 and ASG-AM) for the human Nectin-4 extracellular antigen was detected using the bio-layer interferometry (BLI) technology on the Octet platform (Fortebio, Octet QKe).
(§4) Antibodies were loaded onto a Protein A biosensor (Fortebio, 18-5010) at a concentration of 20 μg/mL with a loading time of 60 s. Nectin-4-His antigen concentrations were set at 200 nM, 100 nM, 50 nM, 25 nM, and 0 nM. The antigen association time was 180 s, and the dissociation time was 200 s. Data were then processed and analyzed using Acquisition 8.2 to give affinity constants (see Table 4).

T-47D cells [3] = assay: Binding of antibody to T-47D cells by FACS; set-up: species or system human; conditions: 3-fold dilutions from 100 nM, 4° C.
Protocol: (§5) The binding activity of antibody ASG-AM to T-47D cells (human ductal breast carcinoma cells, sourced from the Cell Bank of the Chinese Academy of Sciences, Cat. No.: TCHu 87) was detected by FACS and compared with that of the reference antibody ASG-22. The EC50 of the binding of candidate antibodies to the cells was analyzed using the four-parameter method. The method is briefly described as follows: T-47D cells were digested with pancreatin. Each candidate antibody was serially 3-fold diluted from 100 nM and co-incubated with T-47D cells at 4° C. for 0.5-1 h. Subsequently, a PE-labeled anti-human Fc secondary antibody (Invitrogen, 12-4998-82) was added. The signal intensity of the red fluorescence was detected by a flow cytometer. Graphpad Prism was used for plotting and calculating the EC50.

T-47D cells [4] = assay: Endocytosis assay by FACS (antibody remaining on cell surface); format: cell-based, human; conditions: 10 μg/mL antibody
Protocol: The relative quantity of antibodies remaining on the cell surface after incubation at 37° C. for a certain period was detected by FACS to reflect the efficiency of endocytosis. The method is briefly described as follows: T-47D cells (human ductal breast carcinoma cells, sourced from the Cell Bank of the Chinese Academy of Sciences, Cat. No.: TCHu 87) were used. Each test antibody was adjusted to a concentration of 10 μg/mL and co-incubated with cells (at a density of 0.5×10^6 cells/mL) on ice for 1 h for binding. The cells were washed thrice with pre-cooled PBS and then incubated at 37° C. for 0 h, 2 h, and 4 h. The endocytosis reaction was terminated with 0.2% N3Na, and the cells were washed thrice with PBS. Subsequently, a PE-labeled anti-human Fc secondary antibody (Invitrogen 12-4998-82) was added, and the cells were incubated at 4° C. for 30 min. The red fluorescence signal was detected by a flow cytometer.

[5] = molecular target: T2, human Nectin-4 extracellular antigen …; assay: BLI (Octet QKe), antibody loaded on Protein A biosensor, Nectin-4-His in solution
Protocol: as §3, §4

[6] = molecular target: T2, human Nectin-4 extracellular antigen …; assay: SPR (BIAcore T200), antibody captured on Protein A chip, Nectin-4-His as analyte, 1:1 fit
Protocol: as §1, §2

[7] = molecular target: T3, Nectin-4 on T-47D cells (human ductal …); assay: FACS on T-47D cells, antibody 3-fold diluted from 100 nM, PE-labeled anti-human Fc secondary antibody, four-parameter fit
Protocol: as §5, with “EC₅₀” for “EC50”, “EC₅₀.” for “EC50.”

| Molecule | Ka [1] | Rmax [1] | Kd ([1]; dissociation rate) | Rmax [2] | kdis [2] | kon [2] | binding curves to T-47D cells (T-47D cells [3]) | red fluorescence signal at 0 h (T-47D cells [4]; 37° C. for 0 h) | Endocytosis at 2 h (T-47D cells [4]; 37° C. for 2 h) | red fluorescence signal at 2 h (T-47D cells [4]; 37° C. for 2 h) | Endocytosis at 4 h (T-47D cells [4]; 37° C. for 4 h) | red fluorescence signal at 4 h (T-47D cells [4]; 37° C. for 4 h) | Kd [5] | koff [5] | kon [5] | Kd [6] | koff [6] | kon [6] | EC50 [7] |
| --- | --- | --- | --- | --- | --- | --- | --- | --- | --- | --- | --- | --- | --- | --- | --- | --- | --- | --- | --- |
| ASG-22: reference anti-Nectin-4 antibody; heavy chain SEQ ID NO: 12, light chain SEQ ID NO: 17 (Table 2) [reference compound] | 606000 M⁻¹ s⁻¹ | 164.2 RU | 0.00523 s⁻¹ | 0.5303 | 0.00162 s⁻¹ | 113000 M⁻¹ s⁻¹ | substantially consistent | 24098.3 | 53.46% | 11216.0 | 74.97% | 6033 |  |  |  |  |  |  |  |
| B1 |  |  |  |  |  |  |  |  |  |  |  |  | 14.3 nM | 0.00162 s⁻¹ | 113000 M⁻¹ s⁻¹ | 8.64 nM | 0.00523 s⁻¹ | 606000 M⁻¹ s⁻¹ | 0.752 nM |
| B2 |  |  |  |  |  |  |  |  |  |  |  |  | 0.266 nM | 2.38e-05 s⁻¹ | 89600 M⁻¹ s⁻¹ | 1.79 nM | 0.000535 s⁻¹ | 298000 M⁻¹ s⁻¹ | 0.726 nM |
